Legend:
[1] = biological target: T1, human CD39 (ectonucleoside triphosphate diphosphohydrolase 1) (human, UniProt P49961 1-510); test: flow cytometry (MFI), AF488-labelled antibody, told under FIG. 4B (MOLP-8 cells; the sentence prints SK-MEL-28)
T1 construct: Endogenous CD39 on MOLP-8 and SK-MEL-28 cells, primary human B cells and primary human monocytes; also called ENTPD1; ATPDase
T1 sequence: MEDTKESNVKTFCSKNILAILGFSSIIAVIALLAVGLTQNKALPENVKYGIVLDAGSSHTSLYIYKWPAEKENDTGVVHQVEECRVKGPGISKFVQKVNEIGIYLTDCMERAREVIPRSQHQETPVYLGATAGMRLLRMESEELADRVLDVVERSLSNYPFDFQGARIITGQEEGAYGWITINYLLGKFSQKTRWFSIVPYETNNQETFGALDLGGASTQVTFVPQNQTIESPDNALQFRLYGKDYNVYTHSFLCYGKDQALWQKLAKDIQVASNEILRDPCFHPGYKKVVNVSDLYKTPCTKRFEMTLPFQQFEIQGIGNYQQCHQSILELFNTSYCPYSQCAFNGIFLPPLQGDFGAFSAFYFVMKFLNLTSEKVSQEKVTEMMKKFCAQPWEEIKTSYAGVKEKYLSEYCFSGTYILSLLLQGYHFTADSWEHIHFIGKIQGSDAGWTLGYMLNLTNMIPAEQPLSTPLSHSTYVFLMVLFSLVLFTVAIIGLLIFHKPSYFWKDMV
Experimental: (§1) The extent of binding to cells was determined and expressed as mean fluorescent intensity (MFI). Cells were washed with FACS Buffer (2 mM EDTA, 2% FBS) and pelleted by centrifugation. The cells were resuspended in FACS buffer containing a dose range of anti-CD39 or isotype control antibodies directly labelled with fluorophore Alexa Fluor 488 (AF488) and incubated for 30 minutes at room temperature. Cells were then washed twice with FACS buffer followed by fixation in 4% paraformaldehyde (PFA) and resuspended in FACS buffer and analyzed on a FACS Canto II analyzer (BD Biosciences).

[2] = biological target: T1, human CD39 (ectonucleoside triphosphate …); test: flow cytometry (MFI), AF488-labelled antibody on SK-MEL-28 cells, FIG. 4A
Experimental: as §1

B1: SRF370-A (antibody, human IgG4 S228P, kappa, V domains shown)
VH: QVQLVQSGAEVKKPGSSVKVSCKASGGTFSTYAIGWVRQAPGQGLEWMGGIIPAFGTANYAQKFQGRVTITADESTSTAYMELSSLRSEDTAVYYCARDPVRRSPFDIWGQGTMVTVSS
VL: EIVLTQSPATLSLSPGERATLSCRASQSVSSYLAWYQQKPGQAPRLLIYDSSNRATGIPARFSGSGSGTDFTLTISSLEPEDFAVYYCQQSFLWPRTFGGGTKVEIKR
binding result [1]: binds

B2: SRF365-A (antibody, human IgG4 S228P, kappa, V domains shown)
VH: QVQLVQSGAEVKKPGSSVKVSCKASGGTFSDKAISWVRQAPGQGLEWMGSILPIFGTANYAQKFQGRVTITADESTSTAYMELSSLRSEDTAVYYCAREAGYYRYRYFDLWGRGTLVTVSS
VL: EIVMTQSPATLSVSPGERATLSCRASQSVSSNLAWYQQKPGQAPRLLIYGASTRATGIPARFSGSGSGTEFTLTISSLQSEDFAVYYCQQHALWPLTFGGGTKVEIKR
binding result [2]: binds

From US20200399394A1 (SURFACE ONCOLOGY, published 2020)
